Data published in PMC10764958.

Target: SARS2-NP SIM1A (poly-SUMOylated) (SARS-CoV-2) (UniProt P0DTC9)
Experiment: MST
Settings: MST: PBS with 0.05% Tween, room temperature

## CACUCGCUAUGUCGAUAACAACUUCUGUGGCCCUGAUGGCUACCCUCUUGAGUGCAUUAAAGA [Cy5-RNA (SARS-CoV-2 RNA)]
  Kd: 2.71 nM
